Data as given in US20110070238A1 (published 2011).

Molecular target: T1, LAG-3 protein as used in the Biacore analysis (partner not given) (UniProt P18627 23-434, limits assumed)
T1 sequence (looked up): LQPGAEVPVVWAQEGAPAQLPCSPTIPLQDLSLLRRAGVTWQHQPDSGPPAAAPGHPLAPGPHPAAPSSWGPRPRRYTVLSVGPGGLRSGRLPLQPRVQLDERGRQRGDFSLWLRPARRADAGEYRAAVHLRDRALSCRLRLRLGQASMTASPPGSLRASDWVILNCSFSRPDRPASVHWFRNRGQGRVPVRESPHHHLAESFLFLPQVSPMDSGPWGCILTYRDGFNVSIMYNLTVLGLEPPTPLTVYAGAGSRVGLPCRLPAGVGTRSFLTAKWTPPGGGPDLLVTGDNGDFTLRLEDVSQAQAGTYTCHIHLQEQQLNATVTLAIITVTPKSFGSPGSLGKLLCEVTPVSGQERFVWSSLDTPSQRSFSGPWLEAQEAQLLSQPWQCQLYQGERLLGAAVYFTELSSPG
Assay: Biacore (SPR)

B1: A9H12 (580.1E MM H12), murine IgG2a anti-human LAG-3 monoclonal antibody (antibody, V domains shown)
VH: QVQLKESGPGLVAPSQSLSITCTVSGFSLTAYGVNWVRQPPGKGLEWLGMIWDDGSTDYNSALKSRLSISKDNSKSQVFLKMNSLQTDDTARYYCAREGDVAFDYWGQGTTLTVSS
VL: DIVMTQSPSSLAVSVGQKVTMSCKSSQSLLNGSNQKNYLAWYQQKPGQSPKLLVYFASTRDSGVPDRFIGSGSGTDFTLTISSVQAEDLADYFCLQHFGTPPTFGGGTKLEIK
notes: Murine IgG2a from hybridoma; also called A9H12 LAG-3 mAb; hybridoma CNCM I-3755
- Kd: 829 pM
- koff: 0.00143 s⁻¹
- kon: 1.72e+06 M⁻¹ s⁻¹

B2: IMP731 (chimeric A9H12 with human IgG1 Fc region) (antibody, V domains shown)
VH: QVQLKESGPGLVAPSQSLSITCTVSGFSLTAYGVNWVRQPPGKGLEWLGMIWDDGSTDYNSALKSRLSISKDNSKSQVFLKMNSLQTDDTARYYCAREGDVAFDYWGQGTTLTVSS
VL: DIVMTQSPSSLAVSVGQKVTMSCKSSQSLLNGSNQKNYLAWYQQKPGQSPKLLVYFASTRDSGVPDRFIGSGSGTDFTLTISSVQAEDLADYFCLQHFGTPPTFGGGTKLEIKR
notes: also called ImmuTune IMP731; IMP371 [sic]
- Kd: 551 pM
- koff: 0.00112 s⁻¹
- kon: 2.03e+06 M⁻¹ s⁻¹
